Data reported in the supplement of paper PMC9170038.

Tested on: MS2 coat protein
Assay: apparent KD of MS2 coat protein; designed switch direction (-1 OFF switch, 1 ON switch): 1; higher = weaker reporter binding
Procedure, shortened: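 Apparent KD, taken as the median over clusters for each design, was obtained by curve-fitting normalised cluster fluorescence. Designed RNA switches had been transcribed on Illumina chips by stalled E. coli RNA polymerase and titrated with SNAP-549-labelled MS2 coat protein, doubling from 0.7 or 1.5 nM to 3 µM.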

[1] = Eterna round: R95, input ligand: FMN 200 uM
[2] = Eterna round: R95, input ligand: microRNA oligo, concentration not stated
[3] = Eterna round: R95, input ligand: none
[4] = input ligand: microRNA oligo, concentration not stated

Sequence | apparent KD of MS2 coat protein [1] | apparent KD of MS2 coat protein [2] | apparent KD of MS2 coat protein [3] | apparent KD of MS2 coat protein (input ligand: FMN 200 uM) | apparent KD of MS2 coat protein [4] | apparent KD of MS2 coat protein (input ligand: none)
CGUAGGUAGCUGGAGGAUAUUCGAGUGGUAACAUGAGGAUCACCCAUGUGGAGUUAUUUACAUGAGGAGAAGGCUAGCUGCCUGC [JL-ss2-3.16 JL mod] (puzzle: Same State 2) | 14.3 nM | 107 nM | 136 nM | – | – | –
CGUAGGUAGCUGGAGGAUAUUCGAGUGGUAACAUGAGGAUCACCCAUGUGUUGAGAGGUACAUGAGGAGAAGGCUAGCUGCCUGC (puzzle: Same State 2) | 17.6 nM | 58.2 nM | 75.1 nM | – | – | –
CGUCCAGCCUGAGCUGGACAAAAGCAUGUACAUGAGGAUCACCCAUGUUCAUGUACAAGCUUUUUGCUCGUCUUAUA [salish99_208a_r3_046] (puzzle: Sensor for hsa-mir-208a) | 585 nM | 13.9 nM | 479 nM | – | – | –
CGUCCAGCCUGAGCUGGACAAAAGCAUGUACAUGAGGAUCACCCAUGUUCAUGUACAAGCUUUUUGCUCGUCUUAUG [salish99_208a_r3_054] (Eterna round: R96, puzzle: Sensor for hsa-mir-208a) | – | – | – | 485 nM | 16.4 nM | 607 nM
CGUCCAGCCUGAGCUGGACAAAAGCAUGUACAUGAGGAUCACCCAUGUUCAUGUACAAGCUUUUUGCUCGUCUUAUG [salish99_208a_r3_054] (puzzle: Sensor for hsa-mir-208a) | 662 nM | 17.9 nM | 1110 nM | – | – | –
CGUCCGGCCUGUGCUGGCCGGUAUCAUGUACAUGAGGAUCACCCAUGUUCAUGUGCAGGCUUUUUGCUCGUCUUGUG [salish99_mir208a_012] (puzzle: Sensor for hsa-mir-208a) | 20.5 nM | 12.8 nM | 19.9 nM | – | – | –
CGUCCGGCCUGUGCUGGCCGGUGGCUUGUACAUGAGGAUCACCCAUGUUCUUGUGCUGGCUUGUUGCUCGUCUUGUG [salish99_mir208a_r3_022] (puzzle: Sensor for hsa-mir-208a) | 27.9 nM | 19.1 nM | 33.4 nM | – | – | –
CGUCCGGCCUGUGCUGGCCGGUUGCUUGUACAUGAGGAUCACCCAUGUUCAUGUGCAGGCUUUUUGCUCGUCUUGUG [salish99_mir208a_015] (puzzle: Sensor for hsa-mir-208a) | 38.3 nM | 31.1 nM | 45.8 nM | – | – | –
CGUCGUUUGAUAGGAUAUCGCUAUACAUGAGGAUCACCCAUGUUUACCACGCUGGUUUUUCUUUCCGAGAAGGAUUCUGAUGUU [salish99_SSNG02_r04_022] (Eterna round: R96, puzzle: Same State NG 2) | – | – | – | 30.9 nM | 23.8 nM | 33.5 nM
CGUCGUUUGCUAGGAUAUCGCUAUACAUGAGGAUCACCCAUGUUUACCACGCUGGUUUUUCAUACCGAGAAGGAUUCUGAUGUU [salish99_SSNG02_r04_018] (Eterna round: R96, puzzle: Same State NG 2) | – | – | – | 24 nM | 28.7 nM | 34.1 nM
CGUUGUUCCUGAGGAUAUCAGUUGUUUGCAUUAUGAGAAGGCAGUACAUGAGGAUCACCCAUGUUGGGAUUUGAUAGAAUGACG [JR_SSNG1_Sub008] (Eterna round: R96, puzzle: Same State NG 1) | – | – | – | 221 nM | 113 nM | 226 nM
CUAAAACAUGAGGAUCACCCAUGUCAACAAAGUCGAGGAUAUGGGCAAAUAAAAUAAGAACCAGAAGGCGAAUAAG [salish99_SS1_r3_013] (puzzle: Same State 1) | 81.9 nM | 274 nM | 543 nM | – | – | –
CUACGAGCGCCACAGGAUAUACUGAGACUCACAUGAGGAUCACCCAUGUCCAAUUCUCCCAAAUAGUAGAAGGGUGACGCGCUCA [Soordire] (puzzle: Same State 2) | 51.1 nM | 565 nM | 546 nM | – | – | –
CUACUACAUGAGGAUCACCCAUGUUGGAGUGAUGCAGGAUAUGUGUGACCAGAAGAUGAAACAGAAGGGCAAAGAA [JR_SS!_Sub003] (puzzle: Same State 1) | 41.9 nM | 68 nM | 96.2 nM | – | – | –
CUAUCUACAGGUUGCAGUGCUCGUCUUAUACAUGAGGAUCACCCAUGUUAUAGCCCGGUGCUUGCGCUGGGCUGACC [JL ViennaUCT Tearor mod 1] (puzzle: Sensor for hsa-mir-208a) | 33.7 nM | 15.6 nM | 33.6 nM | – | – | –
CUCAAAACAAGCUGCAGUGUUCGUCUUUCACAUGAGGAUCACCCAUGUAGUAGCCCAGUGGAAGCGCUCGGGCCACC [Eronrace] (puzzle: Sensor for hsa-mir-208a) | 55 nM | 24.9 nM | 54.1 nM | – | – | –
CUCAAAACAAGUUGCAGUGUUCGUCUUUAACAUGAGGAUCACCCAUGUAAUAGCCCGGUGGAAGCGCUCGGGCUACC [Edtireisge] (puzzle: Sensor for hsa-mir-208a) | 39.8 nM | 24 nM | 45.5 nM | – | – | –
CUCAAACAUGAGGAUCACCCAUGUGUUGUCAUGGGAGGAUAUCUAAGUUCAUUGUAUUCAGGAGAAGGCCUAUGUC [× ×•×ª×• ×ž×“×™× ×” × ×—×ª-08] (puzzle: Same State 1) | – | 284 nM | – | – | – | –
CUCCAUUGGGUAGGAUAUCUAGGAUAUGGGAAAGACUAAGUCUGUAGGUCACCUAACCCAGAUGGAGAGAAGGACCCAACACUC [pwkr ssNG2 2FMN + F9.40] (Eterna round: R96, puzzle: Same State NG 2) | – | – | – | 15.1 nM | 15.2 nM | 23.2 nM
CUCGAGAGGUUAUAGGAUAUCCAUUUACGUACAUGAGGAUCACCCAUGUCUGACCGCUGGGUCAGGGAGAAGGGUAAGAUCGAGA [Tegeoror] (puzzle: Same State 2) | 275 nM | 420 nM | 600 nM | – | – | –
CUCUCACAUGAGGAUCACCCAUGUCCACCUCCGUGAGGAUAUAGAUAAUAAAUACAUUUACUAGAAGGCGCAUCCC [Bay] (puzzle: Same State 1) | – | 263 nM | – | – | – | –
CUGAGAUGUCAAGGAUAUCACGUCGAUUAGACGUGAGAAGGUGAUCUGUACAUGAGGAUCACCCAUGUGUUACAUGGAACUCAG [Brourd's SSNG1/1-A2 mod 10] (Eterna round: R96, puzzle: Same State NG 1) | – | – | – | 184 nM | 30.9 nM | 53.9 nM
CUGAGCGAUCAAGGAUAUCACGUCGAAUAGACGUGAGAAGGUGAUAAUUACAUGAGGAUCACCCAUGUAUAACAUGAAGCUCAG [SSNG1/9-A1] (Eterna round: R96, puzzle: Same State NG 1) | – | – | – | 16.6 nM | 15.6 nM | 22.4 nM
CUGAGCGAUUAAGGAUAUCACGUCGAUUAGACGUGAGAAGGUGAUCAUAACAUGAGGAUCACCCAUGUAUUACAUGAAGCUCAG [SSNG1/3-A2] (Eterna round: R96, puzzle: Same State NG 1) | – | – | – | 312 nM | 36.8 nM | 128 nM
CUGCAACAUGAGGAUCACCCAUGUAACCCAAUUAUAGGAUAUGUGAUAGUGAUCGACAUGACAGAAGGGUGAUUGG [Riraence] (puzzle: Same State 1) | 149 nM | 188 nM | 291 nM | – | – | –
CUGCUACAUGAGGAUCACCCAUGUUGGAGUAAUGCAGGAUAUGUGAGACCAGAAGAUAAAACAGAAGGGCAAGGAG [JR_SS!_Sub008] (puzzle: Same State 1) | 18.8 nM | 20.8 nM | 24.6 nM | – | – | –
CUGGAAAACACAGGAUAUACCCGUGAAUCACGGGUAGAAGGGUGAAACAUGAGGAUCACCCAUGUUACCUCCCAAGGGAGGAUU [Zaleisge] (Eterna round: R96, puzzle: Same State NG 1) | – | – | – | 432 nM | 518 nM | 946 nM
CUGUACCAUGGAGGAUAUGGGCUGAGACCAGGACAACCCUGGUCAACAUGAGGAUCACCCAUGUCCCAGAAGGCCACGGUGCUA [Anraores] (Eterna round: R96, puzzle: Same State NG 2) | – | – | – | 16 nM | 103 nM | 132 nM
CUGUAUCGCGGAGGAUAUGGGCUGAGACCAGGGCAACCCUGGUCAACAUGAGGAUCACCCAUGUCCCAGAAGGCCGCAAUGCUA [Esatanla] (Eterna round: R96, puzzle: Same State NG 2) | – | – | – | 34.7 nM | 128 nM | 137 nM
